According to the supplement of paper PMC9233669:
Fewer inactive variants are shown than the library holds.

Tests used:
biotinyl-Val-oxazolone = assay: self-aminoacylation, catalytic enhancement (BVO) (fold over background); higher = more active; k-Seq, kA / k0A0; sequences stand for … in GGGAAUGGAUCCACAUCUACGAAUUC…UUCACUGCAGACUUGACGAAGCUG
Method in brief: (§1)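 Catalytic enhancement equals the median kA over the uncatalyzed rate, the latter read from the low-activity peak of a bimodal Gaussian fit. Values of kA came from fitting each sequence's fraction reacted to a pseudo-first-order model, with 1000 bootstraps. Reacted RNA was captured with streptavidin and quantified by triplicate qPCR and Illumina sequencing after 90 minutes at room temperature with 2–1250 μM biotinyl-aminoacyl-oxazolone and 0.43 μM mutagenized RNA pools bearing a 21-nt variable region.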

biotinyl-Phe-oxazolone = assay: self-aminoacylation, catalytic enhancement (BFO) (fold over background); higher = more active; k-Seq, kA / k0A0; sequences stand for … in GGGAAUGGAUCCACAUCUACGAAUUC…UUCACUGCAGACUUGACGAAGCUG
Method in brief: as §1

biotinyl-Leu-oxazolone = assay: self-aminoacylation, catalytic enhancement (BLO) (fold over background); higher = more active; k-Seq, kA / k0A0; sequences stand for … in GGGAAUGGAUCCACAUCUACGAAUUC…UUCACUGCAGACUUGACGAAGCUG
Method in brief: as §1

biotinyl-Met-oxazolone = assay: self-aminoacylation, catalytic enhancement (BMO) (fold over background); higher = more active; k-Seq, kA / k0A0; sequences stand for … in GGGAAUGGAUCCACAUCUACGAAUUC…UUCACUGCAGACUUGACGAAGCUG
Method in brief: as §1

biotinyl-Trp-oxazolone = assay: self-aminoacylation, catalytic enhancement (BWO) (fold over background); higher = more active; k-Seq, kA / k0A0; sequences stand for … in GGGAAUGGAUCCACAUCUACGAAUUC…UUCACUGCAGACUUGACGAAGCUG
Method in brief: as §1

biotinyl-Ile-oxazolone = assay: self-aminoacylation, catalytic enhancement (BIO) (fold over background); higher = more active; k-Seq, kA / k0A0; sequences stand for … in GGGAAUGGAUCCACAUCUACGAAUUC…UUCACUGCAGACUUGACGAAGCUG
Method in brief: as §1

| Sequence | self-aminoacylation (biotinyl-Val-oxazolone) | self-aminoacylation (biotinyl-Phe-oxazolone) | self-aminoacylation (biotinyl-Leu-oxazolone) | self-aminoacylation (biotinyl-Met-oxazolone) | self-aminoacylation (biotinyl-Trp-oxazolone) | self-aminoacylation (biotinyl-Ile-oxazolone) |
| --- | --- | --- | --- | --- | --- | --- |
| GUUUCCCUGGUCAUCGAGUGA [Fam2.1 aminoacylation ribozyme variant] | 7.85 | 48.7 | 14.8 | 14.6 | 16.2 | 6.97 |
| CCACACUUCAACCAAUCUGUC [Fam1B.1 aminoacylation ribozyme variant] | 0.607 | 0.77 | 0.377 | 0.419 | 0.369 | 0.426 |
| AAGUUUGCUAUUAGUCGCUAG [Fam3.1 aminoacylation ribozyme variant] | 0.85 | 1.16 | 0.815 | 1.01 | 0.805 | 0.864 |
| CUACUUCAAACACUCGGCCUG [Fam1A.1 aminoacylation ribozyme variant] | 2.38 | 1.38 | 2.05 | 1.59 | 2.01 | 1.96 |
| GUCACCCUGGUCAUCGAGUGA [Fam2.1 aminoacylation ribozyme variant] | 5.25 | 45.7 | 7.9 | 7.39 | 10.6 | 5.2 |
| AUUCACGUAGGUCAUCAGGUG [Fam2.2 aminoacylation ribozyme variant] | 2.24 | 5.34 | 2.7 | 2.77 | 2.88 | 1.99 |
| GAGUUUGCUAAUAGUCGGAAG [Fam3.1 aminoacylation ribozyme variant] | 1.38 | 11.6 | 1.16 | 1.6 | 4.68 | 1.38 |
| AUUACCAUUGUCAUCGAGUGA [Fam2.1 aminoacylation ribozyme variant] | 4.25 | 40.4 | 8.46 | 7.41 | 10.4 | 4.32 |
| UUUACCCUGGUCAUCGAGUCA [Fam2.1 aminoacylation ribozyme variant] | 0.738 | 1.06 | 0.713 | 0.696 | 0.585 | 0.707 |
| CAACUUCAAACAAUGGGUCUG [Fam1A.1 aminoacylation ribozyme variant] | 0.929 | 2.23 | 1.06 | 0.966 | 0.937 | 1.21 |
| CUGAUUCAAACAAUCGGUCUG [Fam1A.1 aminoacylation ribozyme variant] | 0.828 | 9.61 | 1.14 | 0.923 | 6.12 | 0.947 |
| AUUCACCUAGUUCUUCGGGUG [Fam2.2 aminoacylation ribozyme variant] | 2.43 | 18.1 | 3.31 | 2.71 | 2.9 | 2.2 |
| CUGCAUCAAACAAUCGGUCUG [Fam1A.1 aminoacylation ribozyme variant] | 1.05 | 10.1 | 1.18 | 1.13 | 7.51 | 1.08 |
| AUACACCGAGGUCAUCGGGUG [Fam2.2 aminoacylation ribozyme variant] | 4.34 | 28.8 | 4.55 | 5.37 | 4.15 | 4.24 |
| CCACACUUCACGCAAUCAGUC [Fam1B.1 aminoacylation ribozyme variant] | 0.731 | 0.704 | 0.673 | 0.662 | 0.962 | 0.823 |
| CUACUUGAAACAAUCGUUCUG [Fam1A.1 aminoacylation ribozyme variant] | 0.561 | 0.5 | 0.645 | 0.614 | 0.379 | 0.635 |
| AUUCACCUAGGUCAGCGGGCG [Fam2.2 aminoacylation ribozyme variant] | 5.42 | 27 | 7.99 | 5.27 | 4.44 | 5.22 |
| AUUCAUCUAGGUAAUCGGGUG [Fam2.2 aminoacylation ribozyme variant] | 1.73 | 19.5 | 4.09 | 3.07 | 2.6 | 1.95 |
| AUUCACAUAAGUCAUCGGGUG [Fam2.2 aminoacylation ribozyme variant] | 6.79 | 95.4 | 18.3 | 11.8 | 12.4 | 7.61 |
| AUUCAACUAGGUCAGCGGGUG [Fam2.2 aminoacylation ribozyme variant] | 3.29 | 32.2 | 5.11 | 4.12 | 5.13 | 3.15 |
| AUUCUCCUAGGUCAUCGGGUU [Fam2.2 aminoacylation ribozyme variant] | 3.07 | 14.8 | 4.14 | 3.79 | 3.6 | 3.08 |

| Sequence | self-aminoacylation (biotinyl-Val-oxazolone) | self-aminoacylation (biotinyl-Phe-oxazolone) | self-aminoacylation (biotinyl-Leu-oxazolone) | self-aminoacylation (biotinyl-Met-oxazolone) | self-aminoacylation (biotinyl-Trp-oxazolone) | self-aminoacylation (biotinyl-Ile-oxazolone) |
| --- | --- | --- | --- | --- | --- | --- |
| AUUCACCCAGGUCAUCGGGCG [Fam2.2 aminoacylation ribozyme variant] | 2.62 | 18 | 4.5 | 3.77 | 2.97 | 2.72 |
| AUUACCCGGGGCAUCGAGUGA [Fam2.1 aminoacylation ribozyme variant] | 4.54 | 62.9 | 10.2 | 8.31 | 11.5 | 5.21 |
| CUACAUCAAACACUCGGUCUG [Fam1A.1 aminoacylation ribozyme variant] | 1.26 | 3.01 | 0.978 | 1.03 | 1.11 | 1.03 |
| AAGUCUUCUAAUAGUCGCAAG [Fam3.1 aminoacylation ribozyme variant] | 1.52 | 3.19 | 1.83 | 1.56 | 2.07 | 2.06 |
| AUUCACCUAGGUCAUCAGGUG [Fam2.2 aminoacylation ribozyme variant] | 1.3 | 1.31 | 1.56 | 1.39 | 1.39 | 1.19 |
| CAACACUUCAAGCAACCGGUC [Fam1B.1 aminoacylation ribozyme variant] | 0.998 | 1.59 | 1.2 | 1.12 | 0.754 | 1 |
| AAGUUUGCUAAUAGUCGCGCG [Fam3.1 aminoacylation ribozyme variant] | 2.94 | 20.9 | 4.77 | 3.95 | 5.74 | 3.47 |
| CCACAAUGCAAGCAAUCGGUC [Fam1B.1 aminoacylation ribozyme variant] | 1.41 | 1.02 | 1.01 | 1.22 | 0.93 | 1.48 |
| CCACACAUCAAGCAAUCGGUG [Fam1B.1 aminoacylation ribozyme variant] | 3.26 | 31.6 | 6.65 | 4.98 | 5.14 | 3.27 |
| GUUACCCUCGUCAUCGAGUGA [Fam2.1 aminoacylation ribozyme variant] | 2.31 | 11 | 3.7 | 4.14 | 4.33 | 2.45 |
| UUACUUCAAACAAUCGCUCUG [Fam1A.1 aminoacylation ribozyme variant] | 1.12 | 2.29 | 1.16 | 1.07 | 1.51 | 1.21 |
| AUUACCCUGGUCGGCGAGUGA [Fam2.1 aminoacylation ribozyme variant] | 5.03 | 53.6 | 9.02 | 7.37 | 8.06 | 5.39 |
| AUUCACCUAGCUCAUCGGGUA [Fam2.2 aminoacylation ribozyme variant] | 2.54 | 11.2 | 2.41 | 2.03 | 2.53 | 2.08 |
| UUUCACCUAGGUCAUUGGGUG [Fam2.2 aminoacylation ribozyme variant] | 2.66 | 17 | 2.57 | 2.51 | 3.77 | 2.59 |
| AACUUUGCUAAUAGUCGCCAG [Fam3.1 aminoacylation ribozyme variant] | 2.87 | 10.9 | 3.5 | 2.59 | 2.35 | 2.68 |
| AUUCAUCUAGGUCAUGGGGUG [Fam2.2 aminoacylation ribozyme variant] | 3.14 | 37 | 6.73 | 4.98 | 4.54 | 3.26 |
| UCACACUUCAAGCAACCGGUC [Fam1B.1 aminoacylation ribozyme variant] | 1.05 | 1.26 | 0.739 | 0.801 | 0.796 | 0.984 |
| AUUCACCUUGGUCAUCGGGUA [Fam2.2 aminoacylation ribozyme variant] | 2.98 | 5.21 | 2.64 | 3.09 | 2.75 | 2.5 |
| CUACUUCGAACCAUCGGUCUG [Fam1A.1 aminoacylation ribozyme variant] | 0.779 | 0.458 | 0.61 | 0.813 | 0.463 | 0.723 |
| AUUACCCUGGUCGUCGAGUAA [Fam2.1 aminoacylation ribozyme variant] | 1.12 | 1.08 | 1.68 | 1.3 | 0.721 | 1.27 |
| CUUCUUCAAGCAAUCGGUCUG [Fam1A.1 aminoacylation ribozyme variant] | 0.944 | 3.14 | 0.978 | 0.909 | 2.18 | 0.745 |
